Where a chain is given by its changes, count along the chain named. Numbers in names are those of the source.

Sequences and labels used below:
T1: EsCas13d, nuclease-dead (Eubacterium siraeum, UniProt B0MS50, R295A;H300A;R849A;H854A)
T1 sequence: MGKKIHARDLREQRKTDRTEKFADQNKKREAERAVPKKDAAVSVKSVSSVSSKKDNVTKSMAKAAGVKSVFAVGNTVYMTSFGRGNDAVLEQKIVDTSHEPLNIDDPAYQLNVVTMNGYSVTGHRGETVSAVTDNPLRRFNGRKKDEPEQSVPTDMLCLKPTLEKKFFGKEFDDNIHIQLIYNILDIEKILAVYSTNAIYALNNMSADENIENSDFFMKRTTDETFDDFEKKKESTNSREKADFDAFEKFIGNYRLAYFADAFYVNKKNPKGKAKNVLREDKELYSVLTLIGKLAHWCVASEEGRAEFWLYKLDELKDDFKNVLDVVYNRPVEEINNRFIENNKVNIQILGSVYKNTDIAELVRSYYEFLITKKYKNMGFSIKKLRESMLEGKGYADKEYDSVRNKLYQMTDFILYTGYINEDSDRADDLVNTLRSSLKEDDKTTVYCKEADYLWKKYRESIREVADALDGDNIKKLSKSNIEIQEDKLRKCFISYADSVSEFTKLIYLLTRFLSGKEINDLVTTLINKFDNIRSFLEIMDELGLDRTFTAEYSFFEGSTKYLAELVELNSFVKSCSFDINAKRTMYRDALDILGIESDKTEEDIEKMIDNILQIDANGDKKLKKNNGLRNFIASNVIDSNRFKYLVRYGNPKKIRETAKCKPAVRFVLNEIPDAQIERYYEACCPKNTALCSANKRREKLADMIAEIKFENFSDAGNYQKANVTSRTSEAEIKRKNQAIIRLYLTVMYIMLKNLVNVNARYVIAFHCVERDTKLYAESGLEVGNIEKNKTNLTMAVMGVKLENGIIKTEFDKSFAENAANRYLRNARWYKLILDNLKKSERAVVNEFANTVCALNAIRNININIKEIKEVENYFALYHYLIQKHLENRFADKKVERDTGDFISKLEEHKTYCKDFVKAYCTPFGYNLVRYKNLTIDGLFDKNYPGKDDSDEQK

B1: target 2 MT 5'PFS AUU 3'PFS CAA (mixed)
RNA 1: CACCCGUGCAAAAUUGCAGGGGUCUAAAACCUUCUCCAAAUUGUUUCAUCCU
RNA 2: GGGAAUGGAUCCACAUCUACGAAUUCAUUAGGAUGAAACAAUUUGGAGAAGCAAAGAUCGGAAGAGCACACGU
B2: target 2 MT 5'PFS UUG 3'PFS AGG (mixed)
RNA 1: B1 RNA 1
RNA 2: B1 RNA 2 with A27U, U29G, C52A, A53G, A54G
B3: target 2 MT 5'PFS AAA 3'PFS CGC (mixed)
RNA 1: B1 RNA 1
RNA 2: B1 RNA 2 with U28A, U29A, A53G, A54C
B4: target 2 MT 5'PFS ACU 3'PFS CUU (mixed)
RNA 1: B1 RNA 1
RNA 2: B1 RNA 2 with U28C, A53U, A54U
B5: target 2 MT 5'PFS AAC 3'PFS UAA (mixed)
RNA 1: B1 RNA 1
RNA 2: B1 RNA 2 with U28A, U29C, C52U
B6: target 2 MT 5'PFS UUU 3'PFS UAC (mixed)
RNA 1: B1 RNA 1
RNA 2: B1 RNA 2 with A27U, C52U, A54C
B7: target 2 MT 5'PFS CGA 3'PFS CUC (mixed)
RNA 1: B1 RNA 1
RNA 2: B1 RNA 2 with A27C, U28G, U29A, A53U, A54C
B8: target 2 MT 5'PFS UUG 3'PFS AGU (mixed)
RNA 1: B1 RNA 1
RNA 2: B1 RNA 2 with A27U, U29G, C52A, A53G, A54U
B9: target 2 MT 5'PFS ACU 3'PFS CUA (mixed)
RNA 1: B1 RNA 1
RNA 2: B1 RNA 2 with U28C, A53U
B10: target 2 MT 5'PFS GAA 3'PFS AUC (mixed)
RNA 1: B1 RNA 1
RNA 2: B1 RNA 2 with A27G, U28A, U29A, C52A, A53U, A54C
B11: target 2 MT 5'PFS GAC 3'PFS ACG (mixed)
RNA 1: B1 RNA 1
RNA 2: B1 RNA 2 with A27G, U28A, U29C, C52A, A53C, A54G
B12: target 2 MT 5'PFS AAC 3'PFS ACU (mixed)
RNA 1: B1 RNA 1
RNA 2: B1 RNA 2 with U28A, U29C, C52A, A53C, A54U
B13: target 2 MT 5'PFS AAC 3'PFS UAG (mixed)
RNA 1: B1 RNA 1
RNA 2: B1 RNA 2 with U28A, U29C, C52U, A54G
B14: target 2 MT 5'PFS UAG 3'PFS UGA (mixed)
RNA 1: B1 RNA 1
RNA 2: B1 RNA 2 with A27U, U28A, U29G, C52U, A53G
B15: target 2 MT 5'PFS CGA 3'PFS UUC (mixed)
RNA 1: B1 RNA 1
RNA 2: B1 RNA 2 with A27C, U28G, U29A, C52U, A53U, A54C
B16: target 2 MT 5'PFS GAA 3'PFS AUA (mixed)
RNA 1: B1 RNA 1
RNA 2: B1 RNA 2 with A27G, U28A, U29A, C52A, A53U
B17: target 2 MT 5'PFS UUG 3'PFS AGC (mixed)
RNA 1: B1 RNA 1
RNA 2: B1 RNA 2 with A27U, U29G, C52A, A53G, A54C
B18: target 2 MT 5'PFS ACU 3'PFS CUC (mixed)
RNA 1: B1 RNA 1
RNA 2: B1 RNA 2 with U28C, A53U, A54C
B19: target 2 MT 5'PFS AAC 3'PFS UAC (mixed)
RNA 1: B1 RNA 1
RNA 2: B1 RNA 2 with U28A, U29C, C52U, A54C
B20: target 2 MT 5'PFS GAA 3'PFS AUG (mixed)
RNA 1: B1 RNA 1
RNA 2: B1 RNA 2 with A27G, U28A, U29A, C52A, A53U, A54G
B21: target 2 MT 5'PFS GUA 3'PFS UGC (mixed)
RNA 1: B1 RNA 1
RNA 2: B1 RNA 2 with A27G, U29A, C52U, A53G, A54C
B22: target 2 MT 5'PFS GAC 3'PFS ACA (mixed)
RNA 1: B1 RNA 1
RNA 2: B1 RNA 2 with A27G, U28A, U29C, C52A, A53C
B23: target 2 MT 5'PFS GAC 3'PFS ACC (mixed)
RNA 1: B1 RNA 1
RNA 2: B1 RNA 2 with A27G, U28A, U29C, C52A, A53C, A54C
B24: target 2 MT 5'PFS ACU 3'PFS CUG (mixed)
RNA 1: B1 RNA 1
RNA 2: B1 RNA 2 with U28C, A53U, A54G
B25: target 2 MT 5'PFS AUU 3'PFS UGU (mixed)
RNA 1: B1 RNA 1
RNA 2: B1 RNA 2 with C52U, A53G, A54U
B26: target 2 MT 5'PFS GCC 3'PFS UCA (mixed)
RNA 1: B1 RNA 1
RNA 2: B1 RNA 2 with A27G, U28C, U29C, C52U, A53C
B27: target 2 MT 5'PFS UUU 3'PFS UAA (mixed)
RNA 1: B1 RNA 1
RNA 2: B1 RNA 2 with A27U, C52U
B28: target 2 MT 5'PFS UUG 3'PFS AGA (mixed)
RNA 1: B1 RNA 1
RNA 2: B1 RNA 2 with A27U, U29G, C52A, A53G
B29: target 2 MT 5'PFS AAA 3'PFS CGA (mixed)
RNA 1: B1 RNA 1
RNA 2: B1 RNA 2 with U28A, U29A, A53G
B30: target 2 MT 5'PFS UUU 3'PFS UAU (mixed)
RNA 1: B1 RNA 1
RNA 2: B1 RNA 2 with A27U, C52U, A54U
B31: target 2 MT 5'PFS AAU 3'PFS UGU (mixed)
RNA 1: B1 RNA 1
RNA 2: B1 RNA 2 with U28A, C52U, A53G, A54U
B32: target 1 U8G,A14G (mixed)
RNA 1: CACCCGUGCAAAAAUGCAGGGGUCUAAAACUGAGCGGAUAACCUCUCUAUGG
RNA 2: GGGAAUGGAUCCACAUCUACGAAUUCGUACCAUAGAGGGGUUAGCCGCUCACCGAGAUCGGAAGAGCACACGU
B33: target 1 insG 3' of 4,insC 3' of 1 (mixed)
RNA 1: B32 RNA 1
RNA 2: GGGAAUGGAUCCACAUCUACGAAUUCGUACCAUAGAGAGGUUAUCCGCGUCACCCGAGAUCGGAAGAGCACACGU
B34: target 1 insA 3' of 17,insU 3' of 9 (mixed)
RNA 1: B32 RNA 1
RNA 2: GGGAAUGGAUCCACAUCUACGAAUUCGUACCAUAGAAGAGGUUAUUCCGCUCACCGAGAUCGGAAGAGCACACGU
B35: target 1 insG 3' of 4,insA 3' of 2 (mixed)
RNA 1: B32 RNA 1
RNA 2: B33 RNA 2 with C53A

The data set concerns the target T1, EsCas13d, nuclease-dead. Description: crRNA (strand 1, pre-loaded); Mg2+; 40 mM Tris-HCl pH 7.5, 150 mM NaCl, 6 mM MgCl2, 1 mM DTT, 0.1% Tween-20, 0.2 mg/ml BSA; 25 C; 10 min per concentration, then washed. As to conditions: tags: His6-TwinStrep-SUMO cleaved; N-terminal SNAP kept (SNAP-Surface 488); label: 3' end held by stalled T7 RNA polymerase.
Consider B1, for which binding was put at a Kd of 5 ± 0.6 nM.
Turning to B2, the Kd is 14.1 ± 1.5 nM.
As for B3, the figure is 3.3 ± 1 nM.
For B4, binding was put at a Kd of 6.2 ± 0.6 nM.
B5 gave a Kd of 7.4 ± 2.6 nM.
As for B6, the figure is 9.1 ± 1.2 nM; as for B7, 9.3 ± 1.8 nM.
Take B8: the Kd was determined as 14.5 ± 2.2 nM.
As for B9, the figure is 3.5 ± 0.5 nM; as for B10, 10.2 ± 1.6 nM.
B11: binding was characterised by a dissociation constant (Kd) of 13.6 ± 2.1 nM.
As for B12, the figure is 9.1 ± 3.1 nM; as for B13, 6.8 ± 1.6 nM.
The figure for B14 is 4.1 ± 0.8 nM.
As for B15, the figure is 11.5 ± 1.9 nM; as for B16, 8.1 ± 1.4 nM; as for B17, 13.7 ± 2 nM.
In turn, B18 had a Kd of 5.4 ± 1.4 nM.
As for B19, the figure is 5.2 ± 1.2 nM.
As for B20, binding was characterised by a dissociation constant (Kd) of 8.3 ± 1.1 nM.
As for B21, the Kd turned out to be 11.4 ± 1.5 nM.
The figure for B22 is 12.9 ± 2.6 nM; for B23 it is 14.7 ± 2.3 nM.
Molecule B24 came in with a dissociation constant (Kd) of 6 ± 0.7 nM.
As for B25, the figure is 13.5 ± 1.7 nM; as for B26, 17 ± 4 nM; as for B27, 10.9 ± 1.7 nM.
Regarding B28, the dissociation constant Kd was found to be 7.9 ± 0.5 nM.
The figure for B29 is 3.4 ± 0.8 nM.
The figure for B30 is 8.4 ± 0.9 nM.
With B31, the Kd was determined as 9.1 ± 1.4 nM.
As for B32, the figure is 22.9 ± 1.2 nM; as for B33, 12.6 ± 1 nM; as for B34, 18.6 ± 3.3 nM.
The molecule B35 came in with a Kd of 5.43 ± 0.18 nM.

What is called Kd is the constant that tells how readily two partners part at equilibrium. The low end stands for tighter binding, the high end for weaker binding.

For the origin of these results see article PMC10786891, “Massively parallel profiling of RNA-targeting CRISPR-Cas13d”.
